Data: patent US20220235103A1 (Molecular Partners, published 2022)
Substitutions are numbered along the chain they refer to. Read-outs that look alike come from different tables or passages of the source.

Columns and labels:
bio-S ecto Sino [1] = biological target: T1, bio-S ecto Sino (SARS-CoV-2, UniProt P0DTC2 16-1213)
bio-RBD Fc Acro = bio-RBD Fc Acro (SARS-CoV-2); test: SPR, single trace
bio-S ecto Sino [2] = biological target: T1, bio-S ecto Sino; remark: listed apart in the source
bio-S ecto Sino [3] = biological target: T1, bio-S ecto Sino; remark: listed apart in the source
bio-S1 Acro [4] = biological target: T2, bio-S1 Acro (SARS-CoV-2, UniProt P0DTC2 16-685); test: SPR, single trace
S ecto U [5] = biological target: T3, S ecto U (SARS-CoV-2, UniProt P0DTC2 16-1213)
S ecto U [6] = biological target: T3, S ecto U; test: SPR, ProteOn XPR36, fitted curves (FIG. 9c)
[7] = biological target: T4, SARS-CoV-2 (COVID-19) S protein RBD (cat. SPD-C5255, lot. BV3539b-203FF1-203K) (SARS-CoV-2, UniProt P0DTC2 319-537)
[8] = biological target: T4, SARS-CoV-2 (COVID-19) S protein RBD …; remark: listed apart in the source
bio-S ecto Sino [9] = biological target: T1, bio-S ecto Sino; test: single trace
bio-S1 Acro [10] = biological target: T2, bio-S1 Acro; test: SPR

B1: vS07_23E04 (designed binder)
chain: MRGSHHHHHHGSDLGKKLLQAARAGQLDEVRELLKAGADVNAKDQEGITPLHVAAHQGHLEIVEVLLKAGADVNAKDVWGRTPLHLAAWRGHLEIVEVLLKAGADVNAKDHAGATPLHAAALSGHLEIVEVLLKAGADVNAQDKSGKTPADLAARAGHQDIAEVLQKAA
notes: also called R3c
koff (bio-S ecto Sino [1]): 0.000234 s⁻¹
kon (bio-S ecto Sino [1]): 2.59e+06 M⁻¹ s⁻¹
binding result (bio-RBD Fc Acro): binds
Kd (bio-S ecto Sino [2]): 0.09 nM

B2: vS07_06F12 (designed binder)
chain: B1 chain with Q45R, I48W, V53L, W79F, R90V, H111V, A112S, A119P, L122I, S123Y
notes: also called R1a
binding result (bio-RBD Fc Acro): binds
koff (bio-S ecto Sino [3]): 0.000243 s⁻¹
kon (bio-S ecto Sino [3]): 963000 M⁻¹ s⁻¹
Kd (bio-S ecto Sino [2]): 0.25 nM

B3: vS07_12C06 (designed binder)
chain: B1 chain with Q45R, I48K, H56Q, Q57E, R90I, H111V, A112S, S123H, K134N
notes: also called R1b; Rb1
binding result (bio-RBD Fc Acro): binds
koff (bio-S ecto Sino [3]): 2.64e-05 s⁻¹
kon (bio-S ecto Sino [3]): 1.26e+06 M⁻¹ s⁻¹
Kd (bio-S ecto Sino [2]): 0.021 nM

B4: vS07_22E12 (designed binder)
chain: MRGSHHHHHHGSDLGKKLLQAARAGQLDEVRELLKAGADVNAKDKIGVTPLHIAAEVGHLEIVEVLLKAGADVNAKDVWGRTPLHLAAWSGHLEIVEVLVKAGADVNAKDIAGATPLHAAALFGHLEIVEVLLKVGADVNAQDKSGKTPADLAARAGHQDIAEVLQKAA
notes: also called R3a
koff (bio-S ecto Sino [1]): 0.000308 s⁻¹
kon (bio-S ecto Sino [1]): 1.3e+06 M⁻¹ s⁻¹
binding result (bio-RBD Fc Acro): binds
Kd (bio-S ecto Sino [2]): 0.24 nM

B5: vS07_29B10 (designed binder)
chain: B1 chain with Q45R, V53L, H56Q, Q57H, R90Q, H111L, A119V, S123Y
notes: also called R3b
koff (bio-S ecto Sino [1]): 0.000148 s⁻¹
kon (bio-S ecto Sino [1]): 1.82e+06 M⁻¹ s⁻¹
binding result (bio-RBD Fc Acro): binds
Kd (bio-S ecto Sino [2]): 0.081 nM

B6: vS07_08F10 (designed binder)
chain: MRGSHHHHHHGSDLGHKLLLAAQAGQDDEVRILLAAGADVNAKDVFGQTPLHVAAVAGHLEIVEVLLKAGADVNAKDSIGYTPLHHAARVGHLEIVEVLLKAGADVNAQDWIGITPADLAAFEGHEDIAEVLQKAA
notes: also called S1a
Kd (bio-S1 Acro [4]): 20 nM
koff (S ecto U [5]): 0.00086 s⁻¹
kon (S ecto U [5]): 695000 M⁻¹ s⁻¹
Kd (S ecto U [6]): 1.2 nM

B7: vS07_14G03 (designed binder)
chain: MRGSHHHHHHGSDLGQKLLHAAQYGQDDEVRILLAAGADVNAKDKQGNTPLHIAAFHGHLEIVEVLLKAGADVNAKDQWGLTPLHLAAAWGHLEIVEVLLKAGADVNAQDNYGQTPADLAAESGHEDIAEVLQKAA
notes: also called S2a
koff (S ecto U [5]): 0.00352 s⁻¹
kon (S ecto U [5]): 4.49e+06 M⁻¹ s⁻¹
Kd (S ecto U [6]): 0.79 nM

B8: ALE033 (designed binder)
chain: MRGSHHHHHHGSDLGKKLLEAARAGQDDEVRELLKAGADVNAKDYFSHTPLHLAARNGHLKIVEVLLKAGADVNAKDFAGKTPLHLAANEGHLEIVEVLLKAGADVNAQDIFGKTPADIAADAGHEDIAEVLQKAAGSPTPTPTTPTPTPTTPTPTPTGSDLGKKLLEAARAGQDDEVRELLKAGADVNAKDYFSHTPLHLAARNGHLKIVEVLLKAGADVNAKDFAGKTPLHLAANEGHLEIVEVLLKAGADVNAQDIFGKTPADIAADAGHEDIAEVLQKAAGSPTPTPTTPTPTPTTPTPTPTGSDLGKKLLQAARAGQLDEVRELLKAGADVNAKDREGITPLHLAAQHGHLEIVEVLLKAGADVNAKDVWGRTPLHLAAWQGHLEIVEVLLKAGADVNAKDLAGATPLHVAALYGHLEIVEVLLKAGADVNAQDKSGKTPADLAARAGHQDIAEVLQKAAGSPTPTPTTPTPTPTTPTPTPTGSDLGKKLLQAARAGQLDEVRELLKAGADVNAKDREGKTPLHVAAQEGHLEIVEVLLKAGADVNAKDVWGRTPLHLAAWIGHLEIVEVLLKAGADVNAKDVSGATPLHAAALHGHLEIVEVLLNAGADVNAQDKSGKTPADLAARAGHQDIAEVLQKAAGSPTPTPTTPTPTPTTPTPTPTGSDLGKKLLQAARAGQLDEVRELLKAGADVNAKDREGITPLHLAAQHGHLEIVEVLLKAGADVNAKDVWGRTPLHLAAWQGHLEIVEVLLKAGADVNAKDLAGATPLHVAALYGHLEIVEVLLKAGADVNAQDKSGKTPADLAARAGHQDIAEVLQKAA
kon [7]: 1.54e+06 M⁻¹ s⁻¹

B9: ALE030 (designed binder)
chain: MRGSHHHHHHGSDLGKKLLEAARAGQDDEVRELLKAGADVNAKDYFSHTPLHLAARNGHLKIVEVLLKAGADVNAKDFAGKTPLHLAANEGHLEIVEVLLKAGADVNAQDIFGKTPADIAADAGHEDIAEVLQKAAGSPTPTPTTPTPTPTTPTPTPTGSDLGKKLLEAARAGQDDEVRELLKAGADVNAKDYFSHTPLHLAARNGHLKIVEVLLKAGADVNAKDFAGKTPLHLAANEGHLEIVEVLLKAGADVNAQDIFGKTPADIAADAGHEDIAEVLQKAAGSPTPTPTTPTPTPTTPTPTPTGSDLGKKLLQAARAGQLDEVRELLKAGADVNAKDREGITPLHLAAQHGHLEIVEVLLKAGADVNAKDVWGRTPLHLAAWQGHLEIVEVLLKAGADVNAKDLAGATPLHVAALYGHLEIVEVLLKAGADVNAQDKSGKTPADLAARAGHQDIAEVLQKAAGSPTPTPTTPTPTPTTPTPTPTGSDLGNKLLDAAWVGQDDEVRILLAAGADVNAKDWQGETPLHLAATKGHLEIVEVLLKAGADVNAKDVVGYTPLHVAASQGHLEIVEVLLKAGADVNAQDVHGYTPADLAAQAGHEDIAEVLQKAAGSPTPTPTTPTPTPTTPTPTPTGSDLGKKLLQAARAGQLDEVRELLKAGADVNAKDREGKTPLHVAAQEGHLEIVEVLLKAGADVNAKDVWGRTPLHLAAWIGHLEIVEVLLKAGADVNAKDVSGATPLHAAALHGHLEIVEVLLNAGADVNAQDKSGKTPADLAARAGHQDIAEVLQKAA
Kd [8]: 0.000142 nM
koff [8]: 1.15e-07 s⁻¹
kon [8]: 810000 M⁻¹ s⁻¹

B10: vS07_19G10 (designed binder)
chain: MRGSHHHHHHGSDLGNKLLDAAWVGQDDEVRILLAAGADVNAKDWQGETPLHLAATKGHLEIVEVLLKAGADVNAKDVVGYTPLHVAASQGHLEIVEVLLKAGADVNAQDVHGYTPADLAAQAGHEDIAEVLQKAA
notes: also called R2a
binding result (bio-RBD Fc Acro): binds
koff (bio-S ecto Sino [3]): 0.000179 s⁻¹
kon (bio-S ecto Sino [3]): 693000 M⁻¹ s⁻¹
Kd (bio-S ecto Sino [2]): 0.26 nM

B11: vS07_07F02 (designed binder)
chain: MRGSHHHHHHGSDLGLKLLTAAKQGQDDEVRILLAAGADVNAKDYRGLTPLHYAAAIGHLEIVEVLLKAGADVNAKDQYGATPLHVAAYIGHLEIVEVLLKAGADVNAQDFSGSTPADLAAEEGHEDIAEVLQKAA
notes: also called RN1
binding result (bio-RBD Fc Acro): binds
Kd (bio-S ecto Sino [9]): 14 nM

B12: vS07_26C03 (designed binder)
chain: MRGSHHHHHHGSDLGWKLLWAAQVGQDDEVRILLAAGADVNAKDDLGWTPLHIAAWVGHLEIVEVLLKAGADVNAKDFTGRTPLHHAATEGHLEIVKVLLKAGADVNAQDDVGHTPADLAALWGHEDIAEVLQKAA
notes: also called RN2
binding result (bio-RBD Fc Acro): binds
Kd (bio-S ecto Sino [2]): 23 nM

B13: vS07_08F10v27 (designed binder)
chain: B6 chain with H16K, Q23R, D27L, A35K, Q109K, E126Q
binding result (bio-S1 Acro [10]): binds

B14: vS07_08F10v47 (designed binder)
chain: MRGSHHHHHHGSDLGKKLLLAARAGQLDEVRILLKAGADVNAKDVFGQTPLHTAAVAGHLEIVEVLLKAGADVNAKDKVGYTPLHLAAQSGHLEIVEVLLKAGADVNAKDVVGVTPADLAAFEGHQDIAEVLQKAA
binding result (bio-S1 Acro [10]): binds
